Data from patent US20240391954A1, “MC4R AGONIST PEPTIDES” (The Regents of the University of Michigan, priority 2021, published 2024).
Read-outs that look alike come from different tables or passages of the source. Positions of bridges follow the written chain, without caps; N, C: chain ends. Non-standard residues stand in square brackets, D forms with d. Residues, ends and D or L forms follow the SMILES beside them. dPhe(4-Br) = N[C@H](Cc1ccc(Br)cc1)C(=O)O

B1: CTX-1258 (peptide)
peptide: Ac-RC[dA]R[dPhe(4-Br)]RFC-NH2
modifications: disulfide 2-8
SMILES: CC(=O)N[C@@H](CCCNC(=N)N)C(=O)N[C@H]1CSSC[C@@H](C(N)=O)NC(=O)[C@H](Cc2ccccc2)NC(=O)[C@H](CCCNC(=N)N)NC(=O)[C@@H](Cc2ccc(Br)cc2)NC(=O)[C@H](CCCNC(=N)N)NC(=O)[C@@H](C)NC1=O

Experiments:
human MC3R [1] = target: T1, human MC3R (Homo sapiens, UniProt P41968); assay: split-luciferase cAMP sensor assay, agonist mode (measurement window 1), hMC3R; assay type: cell-based; conditions: agonist mode, hMC3R stable cell line; for Emax: read-out: MC3R cAMP % max activation
T1 construct: expressed in transfected cells; host or cells: HEK-293 cells stably expressing the GScAMP22F split-luciferase cAMP sensor (parent reporter line from Promega); MC3R clone generated in-house, G418 selection
T1 sequence (P41968 whole entry): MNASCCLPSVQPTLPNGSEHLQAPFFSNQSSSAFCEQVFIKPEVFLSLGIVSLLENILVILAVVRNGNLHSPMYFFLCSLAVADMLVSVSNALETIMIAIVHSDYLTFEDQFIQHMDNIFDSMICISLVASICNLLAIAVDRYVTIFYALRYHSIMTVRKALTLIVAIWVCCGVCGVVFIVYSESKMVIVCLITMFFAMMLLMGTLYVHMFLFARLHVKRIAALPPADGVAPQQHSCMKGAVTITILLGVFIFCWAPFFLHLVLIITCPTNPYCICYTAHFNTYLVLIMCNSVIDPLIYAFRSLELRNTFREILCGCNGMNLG
How it was run: (§1)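 EC50 values come from a four-parameter variable-slope fit of luminescence in measurement window 1, capturing direct peptide effects on receptor-expressing cells with a cAMP22f luciferase sensor. Cells were preloaded with 4% D-luciferin, serum-free medium; 20 μM forskolin normalized for cell number and transducer efficiency.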

human MC4R = target: T2, human MC4R (Homo sapiens, UniProt P32245); assay: split-luciferase cAMP sensor assay, agonist mode (measurement window 1), hMC4R; assay type: cell-based; conditions: for Emax: read-out: MC4R cAMP % max activation
T2 construct: host or cells: HEK-293 cells stably expressing the GScAMP22F split-luciferase cAMP sensor and hMC4R, G418 selection
T2 sequence (P32245 whole entry): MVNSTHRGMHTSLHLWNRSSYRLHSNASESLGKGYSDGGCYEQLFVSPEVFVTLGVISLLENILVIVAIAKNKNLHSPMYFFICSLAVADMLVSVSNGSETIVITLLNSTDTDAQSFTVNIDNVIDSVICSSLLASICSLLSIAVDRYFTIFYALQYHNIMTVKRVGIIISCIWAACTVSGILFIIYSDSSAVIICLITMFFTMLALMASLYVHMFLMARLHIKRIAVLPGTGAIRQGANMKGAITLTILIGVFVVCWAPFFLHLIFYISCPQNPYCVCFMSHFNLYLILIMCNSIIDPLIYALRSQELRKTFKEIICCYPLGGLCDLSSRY
How it was run: as §1

human MC3R [2] = target: T1, human MC3R; assay: split-luciferase cAMP sensor assay, antagonist mode in presence of EC90 α-MSH (measurement window 2), hMC3R; assay type: cell-based; conditions: agonist curves and antagonist curves in presence of EC80 to EC90 α-MSH
Experimental: FIG. 2. […] Concentration-response agonist curves for CTX-2205 and CTX-1214 at the human MC3R (blue) and human MC4R (red) were determined by a split-luciferase cAMP sensor dynamic assay in HEK-293 cells stably expressing the hMC3R or hMC4R and the GScAMP22F CAMP sensor. The antagonist curves were determined in the presence of an EC80 to EC90 concentration of α-MSH. Each data point represents the mean±SEM of two experiments with three replicates each per experiment. Data is normalized to the ECmax of α-MSH.
The assay for the determination of the cAMP response in live cells was described previously. (Yu et al., 2020, Science 368, 428-433; incorporated by reference in its entirety). […] Intracellular cAMP levels were measured using an FDSS 7000EX Functional Drug Screening System (Hamamatsu Photonics, Hamamatsu, Japan) in the Center for Chemical Genomics at the Life Sciences Institute. This instrument allowed the in-line addition of test-peptides and receptor agonists while simultaneously acquiring the luminescence signal from live cells. […]
With this set up it was possible to evaluate the direct effect of the test-peptides on the MC3R and MC4R cell lines during measurement window 1, while the antagonist profile in the presence of EC90 α-MSH was determined on measurement window 2. […]

human MC4R receptor [3] = target: T3, human MC4R receptor (human, UniProt P32245 1-332); assay: cell-based or functional assay
T3 sequence (P32245 whole entry): as above

plasma protein [4] = assay: plasma ultrafiltration (Centrifree), LC-MS/MS; peptide 0.1 uM
plasma protein [5] = assay: plasma ultrafiltration (Centrifree), LC-MS/MS; peptide 1.0 uM
plasma protein [6] = assay: plasma ultrafiltration (Centrifree), LC-MS/MS; peptide 10.0 uM
human MC3R [7] = target: human MC3R (human, UniProt P41968 1-323); assay: cell-based or functional assay
Chain of human MC3R (human, UniProt P41968 1-323) (P41968 whole entry): as the sequence (P41968 whole entry) above

human MC4R receptor [8] = target: T3, human MC4R receptor; assay: cell-based or functional assay; remark: listed apart in the source
human MC4R receptor [9] = target: T3, human MC4R receptor; assay: cell-based or functional assay; remark: listed apart in the source
[10] = agonist mode, hMC4R stable cell line

Row | Molecule | Emax (human MC3R [1]) [%] | MC4R selectivity vs MC3R (human MC4R) | Emax (human MC4R; [10]) [%] | pharmacological properties at hMC4R and hMC3R (human MC3R [2]) | Protein Binding (%) (plasma protein [4]) | Protein Binding (%) (plasma protein [5]) | Protein Binding (%) (plasma protein [6]) | other results
1 | CC(=O)N[C@@H](CCCNC(=N)N)C(=O)N[C@H]1CSSC[C@@H](C(N)=O)NC(=O)[C@H](Cc2c[nH]c3ccccc23)NC(=O)[C@H](CCCNC(=N)N)NC(=O)[C@@H](Cc2ccc(Br)cc2)NC(=O)[C@H](CCCNC(=N)N)NC(=O)[C@@H](C)NC1=O [CTX-2205, Arg-cyclo(Cys-D-Ala-Arg-D-Phe(4-Br)-Arg-Trp-Cys)] (Ac-RC[dA]R[dPhe(4-Br)]RWC-NH2; disulfide 2-8) | 13 | 2.12 | 88 | dual MC4R agonist, MC3R antagonist properties |  |  |  | MC4R selectivity vs MC1R (human MC4R): 0.2
2 | CTX-1200 (setmelanotide) (peptide) |  |  |  |  | 43 | 57 | 61 | MC4R selectivity vs MC1R (human MC4R receptor [3]): 0.69; MC4R selectivity vs MC3R (human MC4R receptor [3]): 4.09
3 | CC(=O)N[C@@H](CCCNC(=N)N)C(=O)N[C@H]1CSSC[C@@H](C(N)=O)NC(=O)[C@@H](Cc2c[nH]c3ccccc23)NC(=O)[C@H](CCCNC(=N)N)NC(=O)[C@@H](Cc2ccc(Br)cc2)NC(=O)[C@H](CCCNC(=N)N)NC(=O)[C@@H](C)NC1=O [CTX-1214, Arg-cyclo(Cys-D-Ala-Arg-D-Phe(4-Br)-Arg-D-Trp-Cys)] (Ac-RC[dA]R[dPhe(4-Br)]R[dW]C-NH2; disulfide 2-8 (inferred)) | 15 | 0.2 | 74 | dual MC4R agonist, MC3R antagonist properties |  |  |  | EC50 (human MC3R [1]; read-out: MC3R cAMP EC50): 4.1 nM; EC50 (human MC4R; agonist mode, hMC4R stable cell line, read-out: MC4R cAMP EC50): 2.6 nM
4 | B1 |  |  |  |  | 47 | 50 | 50 | % max activation (human MC3R [7]): 36%; cAMP EC50 (human MC3R [7]): 7.4 nM; % max activation (human MC4R receptor [8]): 92%; cAMP EC50 (human MC4R receptor [8]): 2.4 nM; MC4R selectivity vs MC1R (human MC4R receptor [9]): 0.53; MC4R selectivity vs MC3R (human MC4R receptor [9]): 3.04
